Consider seven molecules from patent US20210284691A1, “CBX8 CHROMDOMAIN INHIBITORS AND THE USES THEREOF” (Purdue Research Foundation, priority 2019, published 2021).

Square brackets hold non-standard residues; d marks the D form. Primed or numbered codes have the meaning given here. Ends that are not written are not given here. * marks the point of attachment. triazole = triazole formed by click reaction joining the C-terminal propargylamide to 5/6-carboxyfluorescein; Isoxazole3carbonyl(5-Me) = Cc1cc(C(=O)*)no1; Tyr(3-Cl) = N[C@@H](Cc1ccc(O)c(Cl)c1)C(=O)O; Lys(Me3) = C[N+](C)(C)CCCC[C@H](N)C(=O)O; Lys(Et2) = CCN(CC)CCCC[C@H](N)C(=O)O; triazole″ = not defined here; PEG4′ = not defined here; NH(propargyl) = C#CCN*

The target of test [1] is T1, endogenous CBX7 (from cells / lysate) (human, UniProt O95931 1-251).
T1 sequence (looked up): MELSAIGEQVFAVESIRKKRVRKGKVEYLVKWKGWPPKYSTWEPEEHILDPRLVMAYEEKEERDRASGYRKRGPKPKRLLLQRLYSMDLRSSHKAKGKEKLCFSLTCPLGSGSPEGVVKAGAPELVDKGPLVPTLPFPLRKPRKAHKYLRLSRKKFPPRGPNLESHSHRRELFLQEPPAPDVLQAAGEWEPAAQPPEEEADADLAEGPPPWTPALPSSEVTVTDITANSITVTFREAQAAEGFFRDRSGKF
As to the kind of experiment: chemoprecipitation from HEK293T nuclear lysate, immunoblot. (In general: In western blotting, separated proteins are transferred to a membrane and probed.)

The target of test [2] is T2, endogenous CBX6 (HEK293T nuclear lysate) (human, UniProt O95503 1-412).
T2 sequence (looked up): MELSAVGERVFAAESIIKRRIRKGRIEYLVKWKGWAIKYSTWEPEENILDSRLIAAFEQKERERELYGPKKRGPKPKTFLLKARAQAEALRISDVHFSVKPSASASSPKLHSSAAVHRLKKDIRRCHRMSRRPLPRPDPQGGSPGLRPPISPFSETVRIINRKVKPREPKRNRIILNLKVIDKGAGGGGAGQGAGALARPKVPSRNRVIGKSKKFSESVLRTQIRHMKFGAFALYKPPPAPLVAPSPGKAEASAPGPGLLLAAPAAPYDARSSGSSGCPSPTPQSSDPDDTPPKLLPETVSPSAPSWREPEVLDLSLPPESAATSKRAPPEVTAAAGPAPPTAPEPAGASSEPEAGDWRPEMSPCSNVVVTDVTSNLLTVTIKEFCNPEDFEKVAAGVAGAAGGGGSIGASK
Described as above.

In test [3] the target is T3, BRG1 (endogenous, HEK293T nuclear lysate) (human, UniProt P51532 1-1647).
T3 construct: Non-specific control of the chemoprecipitation
Described as above.

Test [4] concerns the target T4, endogenous CBX4 (HEK293T nuclear lysate) (human, UniProt O00257 1-560, limits assumed).
T4 construct: Meant by 'any other paralogs' in the pulldown text
T4 sequence (looked up): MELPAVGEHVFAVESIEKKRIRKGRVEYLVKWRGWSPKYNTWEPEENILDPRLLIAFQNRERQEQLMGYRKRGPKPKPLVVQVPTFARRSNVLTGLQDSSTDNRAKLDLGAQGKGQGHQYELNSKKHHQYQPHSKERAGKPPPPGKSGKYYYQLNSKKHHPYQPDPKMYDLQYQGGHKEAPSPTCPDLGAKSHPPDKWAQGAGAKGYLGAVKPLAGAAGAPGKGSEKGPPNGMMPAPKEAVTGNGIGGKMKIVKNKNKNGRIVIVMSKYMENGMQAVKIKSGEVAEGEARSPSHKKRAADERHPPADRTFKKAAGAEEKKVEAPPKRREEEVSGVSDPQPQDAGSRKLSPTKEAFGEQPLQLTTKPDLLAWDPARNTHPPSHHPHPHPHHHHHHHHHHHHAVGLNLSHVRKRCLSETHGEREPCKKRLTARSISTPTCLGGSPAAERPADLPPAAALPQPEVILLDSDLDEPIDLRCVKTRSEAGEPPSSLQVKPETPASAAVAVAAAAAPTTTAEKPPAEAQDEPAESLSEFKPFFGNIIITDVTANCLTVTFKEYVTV
The description is as above.

Test [5] has as its target T5, CBX6 chromodomain (CBX6 ChD), N-terminal His6-tagged recombinant protein (UniProt O95503 8-65, limits assumed).
T5 construct: domain: chromodomain; not shown: N-terminal His6 tag
T5 sequence (looked up): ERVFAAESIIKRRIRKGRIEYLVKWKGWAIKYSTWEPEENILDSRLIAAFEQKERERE
Description: competitive fluorescence polarization (FP) assay, displacement of the FITC-labelled probe.

In test [6] the target is T6, CBX8 chromodomain (CBX8 ChD), N-terminal His6-tagged recombinant protein (UniProt Q9HC52 8-61, limits assumed).
T6 construct: domain: chromodomain; not shown: N-terminal His6 tag
T6 sequence (looked up): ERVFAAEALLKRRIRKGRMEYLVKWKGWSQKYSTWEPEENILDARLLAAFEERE
Described as above.

Test [7] addresses T7, CBX7 chromodomain (CBX7 ChD), N-terminal His6-tagged recombinant protein (UniProt O95931 8-62, limits assumed).
T7 construct: domain: chromodomain; not shown: N-terminal His6 tag
T7 sequence (looked up): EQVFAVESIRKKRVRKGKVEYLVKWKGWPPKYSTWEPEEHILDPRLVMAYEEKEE
The test is described as above.

Test [8] deals with T8, CBX2 chromodomain (CBX2 ChD), N-terminal His6-tagged recombinant protein (UniProt Q14781 9-66, limits assumed).
T8 construct: domain: chromodomain; Expressed in E. coli and purified on Ni-NTA; not shown: N-terminal His6 tag
T8 sequence (looked up): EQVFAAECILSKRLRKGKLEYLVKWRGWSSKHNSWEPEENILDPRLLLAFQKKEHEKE
The description is as above.

The target of test [9] is T9, CBX4 chromodomain (CBX4 ChD), N-terminal His6-tagged recombinant protein (UniProt O00257 8-65, limits assumed).
T9 construct: domain: chromodomain; not shown: N-terminal His6 tag
T9 sequence (looked up): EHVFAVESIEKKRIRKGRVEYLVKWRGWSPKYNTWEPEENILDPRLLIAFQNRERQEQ
The description is as above.

For test [10], the target named is T6, CBX8 chromodomain (CBX8 ChD), …. As to the kind of experiment: method not given.
For test [11] the target is unchanged. Description: direct fluorescence polarization; reference CBX2 ChD; CBX8 is the closest paralog by Table 3.
The target of test [12] is T5, CBX6 chromodomain (CBX6 ChD), …. Description: direct fluorescence polarization, fluorescein-conjugated ligand. In general terms: Polarisation of emitted light reports the rotation of a fluorescent probe.
Test [13] addresses T6, CBX8 chromodomain (CBX8 ChD), …. Described as above.
The target of test [14] is CBX6 chromodomain (CBX6 ChD), N-terminal His6-tagged recombinant protein (UniProt O95503). As to the kind of experiment: competitive fluorescence polarization, displacement of FITC-labelled probe.
The target in test [15] is CBX8 chromodomain (CBX8 ChD), N-terminal His6-tagged recombinant protein (UniProt Q9HC52). Described as above.
Test [16] concerns the target CBX7 chromodomain (CBX7 ChD), N-terminal His6-tagged recombinant protein (UniProt O95931). The test is described as above.
The target in test [17] is CBX4 chromodomain (CBX4 ChD), N-terminal His6-tagged recombinant protein (UniProt O00257). Description: competitive fluorescence polarization (FP) assay, displacement of the FITC-labelled probe.
In test [18] the target is CBX2 chromodomain (CBX2 ChD), N-terminal His6-tagged recombinant protein (UniProt Q14781). The description is as above.
Test [19] concerns the target T7, CBX7 chromodomain (CBX7 ChD), …. Description: direct fluorescence titration of KED97L-FL; reference CBX8 ChD.
The target in test [20] is T5, CBX6 chromodomain (CBX6 ChD), …. As to the kind of experiment: direct fluorescence polarization, FAM-labelled ligand at 100 nM, ChD titrated.
Test [21] has as its target T6, CBX8 chromodomain (CBX8 ChD), …. Described as above.
In test [22] the target is T7, CBX7 chromodomain (CBX7 ChD), …. The test is described as above.
Test [23] deals with T8, CBX2 chromodomain (CBX2 ChD), …. The test is described as above.
Test [24] addresses T9, CBX4 chromodomain (CBX4 ChD), …. The description is as above.
Test [25] has as its target T8, CBX2 chromodomain (CBX2 ChD), …. Description: Thermal Shift Assay of the non-derivatized ligand.

T3 sequence (P51532 whole entry): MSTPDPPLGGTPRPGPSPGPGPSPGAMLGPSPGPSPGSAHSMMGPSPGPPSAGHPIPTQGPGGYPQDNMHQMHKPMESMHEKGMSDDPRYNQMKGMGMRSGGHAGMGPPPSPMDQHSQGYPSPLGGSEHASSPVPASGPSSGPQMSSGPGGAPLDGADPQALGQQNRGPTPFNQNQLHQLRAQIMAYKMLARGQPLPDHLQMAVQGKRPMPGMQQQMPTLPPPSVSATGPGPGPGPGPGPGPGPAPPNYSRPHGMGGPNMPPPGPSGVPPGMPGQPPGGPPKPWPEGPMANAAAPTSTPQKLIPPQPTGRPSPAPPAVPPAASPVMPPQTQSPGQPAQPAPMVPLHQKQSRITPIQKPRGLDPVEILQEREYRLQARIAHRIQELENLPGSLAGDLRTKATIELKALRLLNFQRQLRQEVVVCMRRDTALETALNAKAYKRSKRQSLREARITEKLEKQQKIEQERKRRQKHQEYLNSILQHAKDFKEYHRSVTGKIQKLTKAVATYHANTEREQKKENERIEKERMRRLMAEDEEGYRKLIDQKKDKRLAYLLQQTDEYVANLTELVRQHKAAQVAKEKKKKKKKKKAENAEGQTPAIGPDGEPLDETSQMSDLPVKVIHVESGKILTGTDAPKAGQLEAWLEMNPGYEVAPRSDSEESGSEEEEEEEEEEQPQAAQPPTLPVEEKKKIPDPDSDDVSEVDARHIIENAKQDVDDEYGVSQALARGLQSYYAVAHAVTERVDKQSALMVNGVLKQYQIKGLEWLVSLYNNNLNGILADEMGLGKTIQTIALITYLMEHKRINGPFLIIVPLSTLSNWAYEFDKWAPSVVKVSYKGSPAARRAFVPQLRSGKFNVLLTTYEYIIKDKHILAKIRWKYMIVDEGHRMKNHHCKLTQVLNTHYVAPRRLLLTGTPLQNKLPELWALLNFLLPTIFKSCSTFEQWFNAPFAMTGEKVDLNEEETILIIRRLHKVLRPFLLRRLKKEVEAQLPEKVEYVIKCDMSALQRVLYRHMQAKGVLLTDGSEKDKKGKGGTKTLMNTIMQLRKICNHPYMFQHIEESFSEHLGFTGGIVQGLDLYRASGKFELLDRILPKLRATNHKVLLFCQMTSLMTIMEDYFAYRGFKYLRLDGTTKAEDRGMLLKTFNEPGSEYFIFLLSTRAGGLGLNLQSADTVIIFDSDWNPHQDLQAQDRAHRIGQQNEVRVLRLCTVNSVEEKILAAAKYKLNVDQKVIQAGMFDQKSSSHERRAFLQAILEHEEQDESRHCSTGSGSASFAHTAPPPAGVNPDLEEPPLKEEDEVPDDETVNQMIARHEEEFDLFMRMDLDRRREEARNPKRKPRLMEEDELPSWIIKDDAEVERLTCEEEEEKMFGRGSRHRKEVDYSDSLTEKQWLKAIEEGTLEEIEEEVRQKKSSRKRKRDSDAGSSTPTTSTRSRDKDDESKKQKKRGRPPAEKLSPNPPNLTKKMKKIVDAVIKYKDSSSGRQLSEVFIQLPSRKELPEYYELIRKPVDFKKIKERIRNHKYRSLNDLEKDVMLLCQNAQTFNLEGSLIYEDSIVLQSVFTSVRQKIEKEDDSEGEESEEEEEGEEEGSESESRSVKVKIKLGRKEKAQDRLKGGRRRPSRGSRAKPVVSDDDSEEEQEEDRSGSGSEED

B1: SW2_152F-B (biotinylated SW2_152F) (peptide)
peptide: PI[Lys(Et2)]S-{PEG4′-biotin}
modifications: also: Pro1 alpha-amino modified, group not given here, non-natural monomers
On to B1, for which the binding result in test [1] is reported as “no binding”; in [2], “no binding”; in test [3], “no binding”; in [4] it was “binds”.

B2: KED97 (peptide)
peptide: {Isoxazole3carbonyl(5-Me)}-[Tyr(3-Cl)]VI[Lys(Me3)]S-NH2
notes: Final PSL1 ligand with combined synthons
The term IC50 denotes the point on the concentration scale where inhibition reaches its midpoint. On to B2, for which the IC50 in [5] was determined as 4.4 µM; in test [6], 9.5 µM; in test [7], 60 µM; in test [8] it was 21 µM; in test [9], 49 µM.

B3: KED97L-CA (chloroalkane-modified KED97L) (peptide)
peptide: {Isoxazole3carbonyl(5-Me)}-[Tyr(3-Cl)]VI[Lys(Et2)]S-{NH(propargyl)-triazole″-PEG2‑chloroalkane}
modifications: reading uncertain
As a reminder, the Kd is the equilibrium constant for the complex coming apart. Regarding B3, the Kd in [10] is 0.4 µM.

B4: SW2_152F-FL (library#77) (peptide)
peptide: PI[Lys(Et2)]S
modifications: not fully specified (C-terminus); also: Pro1 alpha-amino modified, group not given here (non-natural monomer)
notes: also called fluorescein-conjugated SW2_152F
B4: in test [11], the “selectivity for CBX2 over the other paralogs (fold)” value was at least 24 fold. For the same molecule, the values for the Kd in test [12] and in [13] were 9 µM and 1.9 µM, respectively.

B5: KED98 (PP) (peptide)
chain: [Tyr(3-Cl)]PIK(trimethyl)S-NH2
modifications: also: N-terminal acylation, acyl group not given here
B5: the half-maximal inhibitory concentration (IC50) in [14] came out at 34 µM; in test [15], 14 µM; in [16], 83 µM; in [17], 173 µM; in [18], 46 µM.

B6: KED97L-FL (peptide)
peptide: {Isoxazole3carbonyl(5-Me)}-[Tyr(3-Cl)]VI[Lys(Et2)]S-{NH(propargyl)-triazole-5/6‑FAM}
notes: also called 97L fluorescein derivative; KED97L (as measured)
In the case of B6, the “selectivity for CBX8 ChD over CBX7 ChD (fold)” value in [19] amounted to 20 fold. Also, the equilibrium dissociation constant (Kd) in test [20] is 0.26 µM; in [21], 0.24 µM; in test [22] it was 4.7 µM; in test [23], 1.1 µM; in [24], 2.7 µM.

B7: SW2_152F (peptide)
peptide: PI[Lys(Et2)]S-{NH(propargyl)}
modifications: also: Pro1 alpha-amino modified, group not given here, non-natural monomers
notes: Non-derivatized ligand, used in the Thermal Shift Assay and in cells; also called CBX2i
As for B7, the Kd in [25] came to 0.11 µM.
